According to article PMC2965215:

Biological target: T1, ORF904 primase domain Y352A (Sulfolobus islandicus plasmid pRN1, UniProt Q54324 40-370, Y352A)
T1 sequence: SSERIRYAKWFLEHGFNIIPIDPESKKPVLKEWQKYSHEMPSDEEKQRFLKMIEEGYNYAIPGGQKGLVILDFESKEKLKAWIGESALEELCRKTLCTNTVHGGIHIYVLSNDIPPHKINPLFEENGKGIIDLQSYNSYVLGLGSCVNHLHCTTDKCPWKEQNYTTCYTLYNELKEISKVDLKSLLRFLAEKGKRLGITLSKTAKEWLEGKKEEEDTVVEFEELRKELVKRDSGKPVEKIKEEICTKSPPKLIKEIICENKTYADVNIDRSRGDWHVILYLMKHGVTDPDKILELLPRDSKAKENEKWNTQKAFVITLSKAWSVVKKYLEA
Experiment: fluorescence anisotropy

B1: templatefluo (ssDNA)
DNA: TCTTCTGTGCACTCTTC
  Kd: 1.03 ± 0.08 µM
